According to the DeepSol protein solubility set:

test: soluble on expression in E. coli; label from the status in PepcDB or PDB records

Row | Sequence | soluble on expression in E. coli
1 | MAKMRISPELKKLIEKYRSVKDTEGMSPAKVYKLVGENENLYLKMTDSRYKGTTYDVEREKDMMLWLEGKLPVPKVLHFERHDGWSNLLMSEADGVLCSEEYEDEQSPEKIIELYAECIRLFHSIDISDCPYTNSLDSRLAELDYLLNNDLADVDSENWEEDTPFKDPRELYDFLKTEKPEEELVFSHGDLGDSNIFVKDGKVSGFIDLGRSGRADKWYDIAFCVRSIREDIGEEQYVELFFDLLGIKPDWEKIKYYILLDELF | soluble
2 | MDKKQVTDLRSELLDSRFGAKSISTIAESKRFPLHEMRDDVAFQIINDELYLDGNARQNLATFCQTWDDENVHKLMDLSINKNWIDKEEYPQSAAIDLRCVNMVADLWHAPAPKNGQAVGTNTIGSSEACMLGGMAMKWRWRKRMEAAGKPTDKPNLVCGPVQICWHKFARYWDVELREIPMRPGQLFMDPKRMIEACDENTIGVVPTFGVTYTGNYEFPQPLHDALDKFQADTGIDIDMHIDAASGGFLAPFVAPDIVWDFRLPRVKSISASGHKFGLAPLGCGWVIWRDEEALPQELVFNVDYLGGQIGTFAINFSRPAGQVIAQYYEFLRLGREGYTKVQNASYQVAAYLADEIAKLGPYEFICTGRPDEGIPAVCFKLKDGEDPGYTLYDLSERLRLRGWQVPAFTLGGEATDIVVMRIMCRRGFEMDFAELLLEDYKASLKYLSDHPKLQGIAQQNSFKHT | soluble
3 | MAAHSFPLLRLPPKNLASVLRQVEIIEQIGLSLLSNKTKEYIRKFCDFKGFELSVWLHPYAVELELFKNGEGATHCSFRDGRACEHNEYPDGFTFDASQFFDMKSCLKHLLYILNPSKIAFLFYIQSNEVSDESQFQMTVDCLKGVKILKFSAKCIPQMNHIVRLVNAFPQTNRLSLVKNSNQPFQLSTLRQILHRKIQKLNLVIDITLNELLLNNSATSDFYSERLRGKDINLFLKHWAAGLKPELEYISFQISAVNFVESTILAGIPH | not soluble
4 | MTVVKEELKEALEMLKNTGVRITPQRHAILEYLVESMTHPTADDIYKALEGKFPNMSVATVYNNLRVFKEVGLVKELTYGDASSRFDYVTSQHYHVICEKCGKIVDFPYGGLEKLEEEAAKTTGFVINSHRLEIYGVCPECHKA | not soluble
5 | MLEDLSQGKGSNHEKRKMESTAQITEEDSKLDEVVGLQKQICDLGTELTRQSSWWCIAHKDLQSQIDALIKENQEIRAELKTLKKQDAEATKACIGSPTPARASNTLPVYIKIEGTDSERTTSWDERDELSGSPPNRSTMATGGTDSQDEMLSFTSVDEKVIHMSSKFLQRSLGRMSPEPLSDSTFLDTESLADIWSSNPETSDGELLLHAQASRVIPCFSPNALWVQNIPTKSRAPKEIQQTSDTTKTDETKEKQHPNGKVERMLSDGRTIITFPNGTRKEISADKKTTLIRFFNGDMKKIKSNQKVIYYYADAQTMHTTYPDGVEVVQFPNKWTEKFYPDGSKETVFPDGTVKRLKDGCEETVFPDGTFVTVKRNGDKTIMFSNGEKEIHTARFKRKEFPDGTTKTVYCNGCQETKYASGRVRVKDEKGTVILDWK | not soluble
6 | MGSDKIHHHHHHMDIIDYLPQKMKAEAEAYMPCGLEEIRVRAGKQVQYMFAGGCRAGVYISHSDIEEMINYLSGYSFHAIAPQLAAGYFTVEGGHRVGIAGQMGCDGGKVTAVSEIASLNIRIAHQIRDVAMPLMPYIRDENSIYNTLVISRPGEGKTTFLRDCIRILSDGCDGKNALKVSVVDERSEIAACYLGVAQNDIGNSSDVLDNCPKSLGMRMLLRSMSPDVIAVDELGGEGDIEALNQLVSCGIRILGSVHGTNADDLRRKILPHAIERFVFIDHDEKGVRRYSIYDEAYRLLYSTVCGIGADKRLQQKKKGRYSDAV | not soluble
7 | MGSDKIHHHHHHMCMYVFVKERVESRSFIPEEKIFELLEKTKNPDPARVREIIQKSLDKNRLEPEETATLLNVEDPELLEEIFEAARTLKERIYGNRIVLFAPLYIGNDCINDCVYCGFRVSNKVVERRTLTEEQLKEEVKALVSQGHKRLIVVYGEHPNYSPEFIARTIDIVYNTKYGNGEIRRVNVNAAPQTIEGYKIIKSVGIGTFQIFQETYHRETYLKLHPRGPKSNYNWRLYGLDRAMMAGIDDVGIGALFGLYDWKFEVMGLLYHTIHLEERFGVGPHTISFPRIKPAINTPYSQKPEHVVSDEDFKKLVAIIRLSVPYTGMILTAREPAKLRDEVIKLGVSQIDAGSRIGIGAYSHKEDDEDRKRQFTLEDPRPLDQVMRSLLKEGFVPSFCTACYRAGRTGEHFMEFAIPGFVKNFCTPNALFTLQEYLCDYATEETRKVGEEVIERELQKMNPKIRERVREGLEKIKRGERDVRF | not soluble
8 | MAHHHHHHMDDYHDDDVHSNYGYEDDEYDDAADDWEAEAAEEEQRAVAEEAARQARLEKKLATRAPVKKEEEEEAVPEDVERAMADMRQVANDIASGSALLSGGDSEELIGNHKLASDADVERVGTMIADRLTSFSDSGHYDKLIVEVFQRLTNHLTSTHLLNEEADRVHRLREELKRAAKAKLKPVEKAPVTQSGLDLDNFEDRGGAAVADNEDETGW | soluble
9 | MNIKLYYVHDPMCSWCWGYKPTIEKLKQQLPGVIQFEYVVGGLAPDTNLPMPPEMQQKLEGIWKQIETQLGTKFNYDFWKLCTPVRSTYQSCRAVIAAGFQDSYEQMLEAIQHAYYLRAMPPHEEATHLQLAKEIGLNVQQFKNDMDGTLLEGVFQDQLSLAKSLGVNSYPSLVLQINDAYFPIEVDYLSTEPTLKLIRERIIENMSAQ | soluble
10 | MGSSHHHHHHSSGLVPRGSHMEHAFTPLEPLLPTGNLKYCLVVLNQPLDARFRHLWKKALLRACADGGANHLYDLTEGERESFLPEFVSGDFDSIRPEVKEYYTKKGCDLISTPDQDHTDFTKCLQVLQRKIEEKELQVDVIVTLGGLGGRFDQIMASVNTLFQATHITPVPIIIIQKDSLIYLLQPGKHRLHVDTGMEGSWCGLIPVGQPCNQVTTTGLKWNLTNDVLGFGTLVSTSNTYDGSGLVTVETDHPLLWTMAIKS | soluble
11 | MKKIGFIGLGNMGLPMSKNLVKSGYTVYGVDLNKEAEASFEKEGGIIGLSISKLAETCDVVFTSLPSPRAVEAVYFGAEGLFENGHSNVVFIDTSTVSPQLNKQLEEAAKEKKVDFLAAPVSGGVIGAENRTLTFMVGGSKDVYEKTESIMGVLGANIFHVSEQIDSGTTVKLINNLLIGFYTAGVSEALTLAKKNNMDLDKMFDILNVSYGQSRIYERNYKSFIAPENYEPGFTVNLLKKDLGFAVDLAKESELHLPVSEMLLNVYDEASQAGYGENDMAALYKKVSEQLISNQK | soluble
12 | MSLTTLTTALKAGPEAPAILHRCRELVAPALAEAVGGMHPWMREMADYALGRGAAGGAPAAHSQGKGVRQALAVLGAEAAGGPAEAGVPAAVAVELVHTFSLLHDDIMDGDAMRRGRPALWKAYGTGPAVLAGDALFALAVQTLTTASAPGAAHRLSAALGDLVRGQADDLLFAHRPWTGPEAVSVAEYEAMAEHKTGSLLGCALALGAHLAGAPEETAAVLDRTGRHLGVAFQIVDDLLGIWGDPAVTGKPVHGDLRQGKKTFPVLAALATPSGSALEGLLTARDDTAVVRAAAVVEQAGGRSAALREARRHLTVAHGLLASVQPAPRPAADLRTLLSALSRRTIEGHHHHHH | soluble
13 | MAHHHHHHMENNNHGCNMHDDNFDLLMKKICNELKKGDKNKNGLIMYNTFIDVLDLFQIEYGSSIIDYLMKHCVVTEDGFVNYKNLWLIHDPSKTMRNNSESVEESINPKFMDIQDRYEDIDKYTQEKNEIIRKLYSQWDKCLLRDDEFKAKLINGNIDITPEFERSLYLYGPSRSLSFANVMKTLYINDSKNRKNRNNFVSKIKDEKWRKLNIDENEQQCFQDIHRNPIAWEGSNVTDADNLIQNVELISNYLRGEENVNMRKEEFISHDFFNNTVKNLIKNYISNKISESEFYLCLNKLNISVTPQLNNLIKCHELDSNGKFKDFATTINRCIPKNLLHSLQRRVQLYGAQKNDKDSKLNFSYNNCCCDRLCPNVTDDNPYSNENIDKH | not soluble
14 | SQPKVPEWVNTPSTCCLKYYEKVLPRRLVVGYRKALNCHLPAIIFVTKRNREVCTNPNDDWVQEYIKDPNLPLLPTRNLSTVKIITAKNGQPQLLNSQ | soluble
15 | MLRRVNEQGPVQGRAQAPVKPDDSVPPELARARVWILTDGKAGDENQCIGIAEALGLAYETRRIPDGRPLTWMAPWGPIDPRDAPGRAGGLLQGPLPHLLIASGRRAVPYLRAVRRASDEKTFTAFLKDPRTGHDTADFIWVPDYDDLRGPNVFTTLTAPHPVSRARLDAARTTPDPRLARLPWPRIAVLIGGDSRHLRYRKADMQRLVRDLTKLAEGGCSLMLTVSRRTPPDLRKALEDLVKDKGGFFWDGSGENPYVGMLAIADHIVVTSDSANMVGEAASTGVPLLLFDLPRTYIRHRRMFAGLAMAGALKPFIGRLEALRYAPIDATPEIAAALAEGYQRHRARLAGEVAAVPRPAEPTSAPRGPFLEHHHHHH | not soluble
16 | MGSDKIHHHHHHMKPIKEIADQLELKDDILYPYGHYIAKIDHRFLKSLENHEDGKLILVTAVTPTPAGEGKTTTSIGLSMSLNRIGKKSIVTLREPSLGPTLGLKGGATGGGRSRVLPSDEINLHFTGDMHAVASAHNLLAAVLDSHIKHGNELKIDITRVFWKRTMDMNDRALRSIVIGLGGSANGFPREDSFIITAASEVMAILALSENMKDLKERLGKIIVALDADRKIVRISDLGIQGAMAVLLKDAINPNLVQTTEGTPALIHCGPFANIAHGTNSIIATKMAMKLSEYTVTEAGFGADLGAEKFIDFVSRVGGFYPNAAVLVATVRALKYHGGANLKNIHEENLEALKEGFKNLRVHVENLRKFNLPVVVALNRFSTDTEKEIAYVVKECEKLGVRVAVSEVFKKGSEGGVELAKAVAEAAKDVEPAYLYEMNDPVEKKIEILAKEIYRAGRVEFSDTAKNALKFIKKHGFDELPVIVAKTPKSISHDPSLRGAPEGYTFVVSDLFVSAGAGFVVALSGDINLMPGLPKKPNALNMDVDDSGNIVGVS | not soluble
17 | MSLGIAGTNTVRLQVYTNLKTFKSGDEISDGWVAKFHTDGDYIKWFAIENEDSLEGKEIKLFDTYKVDYTGTIKEKEKGKVTYAVLKAYVAIDPLERQYKELTLGIGDEIEDTAYSIKDVDVEFEPKETYIPKKLTEPITVLDTEIMEQGLENVDSNLILVGGPVVNKVTAALAEDLGVPTTYDEWKEKFGTGADSGQIIYKEKCSKIGGYGVLLVAGTDREGTRAAAEALLEYISKLEGHHHHHH | soluble
18 | MAHHHHHHMVALEREYILGSFCELRIITSLSSTQLSKVTLRKPVEDEDTSTAERAEVFGTELIPGVPVHLPPGRSLSIFTSTGCTLLLVAAPTVLQRCYATSLGATWVRSLLDFHSHLERARVEARGRDDVGPRVLFVSDRHHCGASTYVRWLSNFAVRLGYHPLLLDGVLDTPAFAFPGSVALFHAQHCMDIEEEMNLTPGLYAQVGQSRVANPRLYQHWVQQLLPSGMEKMARSERCRVGGLFFDFGVVEPHAVEQAEAAAAAAVPSVDPTASASSAPAALGSDKSHTNPLDTLLDTIVAADIDHVCVVGSSWLRWKLVQRAWERFGGEGSMSIVQAMLDPRWNVPPEVDCGGGQHFKIFLLDSVELVRSVPVPLWNRQRWLQYFFGTPTSPVKPTLITLEASQVRVATVGAAAMDAMSTLLPMMDSEDVDRQKADVAAVSFITLQDVALKDRIVAISTATEYERSPDGELHRLPFSVFERRIRQSTVLGFALVESVTPERLTLLVSGCPLDKELGLCFLLTEEVLKS | not soluble
